The values that follow come from patent CN103319600A (MILITARY MEDICINE INST OF NANJING MILITARY REGION, dated 2013).

The assay has as its target T1, 阴性对照蛋白BSA (UniProt P02769 25-607).
T1 construct: Negative control protein
Description: ELISA. (In an ELISA, binding on a coated surface is turned into a signal by an enzyme label.)

T1 sequence (P02769 25-607 limits assumed): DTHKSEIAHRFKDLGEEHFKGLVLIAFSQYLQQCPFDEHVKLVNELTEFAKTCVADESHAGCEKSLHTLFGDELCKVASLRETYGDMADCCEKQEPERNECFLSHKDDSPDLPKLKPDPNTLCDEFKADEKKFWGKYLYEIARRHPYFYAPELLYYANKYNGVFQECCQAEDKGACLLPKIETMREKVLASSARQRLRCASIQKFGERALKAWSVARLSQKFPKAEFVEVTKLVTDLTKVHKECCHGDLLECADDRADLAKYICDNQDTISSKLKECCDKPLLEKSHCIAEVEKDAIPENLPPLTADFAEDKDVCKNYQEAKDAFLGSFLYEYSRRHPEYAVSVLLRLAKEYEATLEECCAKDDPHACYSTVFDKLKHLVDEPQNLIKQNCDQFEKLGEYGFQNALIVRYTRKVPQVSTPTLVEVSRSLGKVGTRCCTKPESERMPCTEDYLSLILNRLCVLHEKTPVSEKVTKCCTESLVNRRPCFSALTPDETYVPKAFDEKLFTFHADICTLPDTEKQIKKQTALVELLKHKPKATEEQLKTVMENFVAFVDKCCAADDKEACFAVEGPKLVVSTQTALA

B1: 人源抗TLR4抗体Fab (Fab, V domains shown)
VH: EVQLVESGGGLVKPGRSLRLSCAASGFTFSSYAMHWVRQAPGKGLEWVAVISYDGSNKYYADSVKGRFTISRDNSENTLYLQMNSLRAEDTAVYYCAAYSSSSWFDPWGQGTLVTVSP
VL: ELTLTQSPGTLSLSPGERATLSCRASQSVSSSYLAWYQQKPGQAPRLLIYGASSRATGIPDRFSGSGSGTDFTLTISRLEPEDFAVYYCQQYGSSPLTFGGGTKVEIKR
notes: also called 抗TLR4基因工程抗体Fab; 抗TLR4的Fab
On to B1, for which the binding result was “no binding”.
